Test results from patent publication US20230140797A1 (published 2023).
Positions count from the first letter of the chain named. Where two headings read alike, the source gives them in different places. Blank lines part the entries; values can stand above or below the binder they belong to.

Assays:
[1] = target: human FcγRIa extracellular domain with C-terminal His tag (human, UniProt P12314 16-292); assay: SPR
[2] = target: T1, human FcγRIIb extracellular domain with C-terminal His tag (human, UniProt P31994 43-217); assay: SPR Biacore, ratio of KDs
T1 sequence (looked up): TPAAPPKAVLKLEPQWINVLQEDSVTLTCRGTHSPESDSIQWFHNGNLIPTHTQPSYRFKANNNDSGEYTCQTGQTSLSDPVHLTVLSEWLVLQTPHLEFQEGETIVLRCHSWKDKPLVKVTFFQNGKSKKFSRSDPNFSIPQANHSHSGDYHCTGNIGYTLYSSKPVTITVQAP

[3] = target: T2, human FcγRIIb extracellular domain with C-terminal His tag (human, UniProt P31994 43-217); assay: SPR
T2 sequence (looked up): T1 sequence (looked up)

[4] = target: T3, human FcγRIIa type H extracellular domain with C-terminal His tag (human, UniProt P12318 34-217); assay: SPR
T3 sequence (looked up): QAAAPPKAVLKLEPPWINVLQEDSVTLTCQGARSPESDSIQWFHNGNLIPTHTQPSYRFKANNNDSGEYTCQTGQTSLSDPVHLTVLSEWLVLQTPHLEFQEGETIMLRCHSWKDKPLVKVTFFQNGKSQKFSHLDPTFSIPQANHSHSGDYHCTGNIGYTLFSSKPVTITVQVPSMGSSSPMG

[5] = target: T4, human FcγRIIa type R (131Arg) extracellular domain with C-terminal His tag (human, UniProt P12318 34-217); assay: SPR
T4 sequence (looked up): T3 sequence (looked up) with H134R

[6] = target: T2, human FcγRIIb extracellular domain with …; assay: ratio of SPR KDs
[7] = target: T2, human FcγRIIb extracellular domain with …; assay: ratio of SPR KDs; remark: listed apart in the source
[8] = target: T5, human FcγRIIa type R extracellular domain with C-terminal His tag (human, UniProt P12318 34-217); assay: SPR
T5 sequence (looked up): T3 sequence (looked up) with H134R

[9] = target: T6, human FcγRIIa type H (131His) extracellular domain with C-terminal His tag (human, UniProt P12318 34-217); assay: SPR
T6 sequence (looked up): T3 sequence (looked up)

[10] = target: human FcγRIIIa type V extracellular domain with C-terminal His tag (human, UniProt P08637 17-208); assay: SPR
Target sequence in this assay (P08637 17-208 F176V): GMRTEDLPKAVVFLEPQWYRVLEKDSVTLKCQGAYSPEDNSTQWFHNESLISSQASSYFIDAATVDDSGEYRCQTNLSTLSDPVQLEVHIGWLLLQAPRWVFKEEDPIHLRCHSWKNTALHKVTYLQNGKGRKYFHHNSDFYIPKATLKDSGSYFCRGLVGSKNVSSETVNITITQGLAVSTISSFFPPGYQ

[11] = target: human FcγRIIIa type V extracellular domain with C-terminal His tag (human, UniProt P08637 17-208); assay: SPR; remark: listed apart in the source
Target sequence in this assay (P08637 17-208 F176V): as above

Chain of human FcγRIa extracellular domain with C-terminal His tag (P12314 16-292): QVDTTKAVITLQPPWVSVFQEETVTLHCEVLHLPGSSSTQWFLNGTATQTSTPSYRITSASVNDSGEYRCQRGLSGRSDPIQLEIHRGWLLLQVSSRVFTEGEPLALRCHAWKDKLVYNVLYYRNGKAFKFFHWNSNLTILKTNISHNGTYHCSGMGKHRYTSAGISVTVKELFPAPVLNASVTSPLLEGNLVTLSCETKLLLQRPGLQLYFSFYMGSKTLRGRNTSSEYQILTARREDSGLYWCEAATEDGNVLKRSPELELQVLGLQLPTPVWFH

KD (IIb) of the parent polypeptide/KD (IIb) of the altered polypeptide [2]: 3.5 fold (parent IL6R-B3/IL6R-L)
B2: IL6R-BP911/IL6R-L (antibody, human IgG1, kappa)
heavy: QVQLQESGPGLVKPSETLSLTCAVSGHSISHDHAWSWVRQPPGEGLEWIGFISYSGITNYNPSLQGRVTISRDNSKNTLYLQMNSLRAEDTAVYYCARSLARTTAMDYWGEGTLVTVSSASTKGPSVFPLAPSSKSTSGGTAALGCLVKDYFPEPVTVSWNSGALTSGVHTFPAVLQSSGLYSLSSVVTVPSSSLGTQTYICNVNHKPSNTKVDKKVEPKSCDKTHTCPPCPAPELLGGDSVFLFPPKPKDTLMISRTPEVTCVVVDVSHEDPEVKFNWYVDGVEVHNAKTKPREEQYNSTYRVVSVLTVLHQDWLNGKEYKCKVSNKALPKPIEKTISKAKGQPREPQVYTLPPSRDELTKNQVSLTCLVKGFYPSDIAVEWESNGQPENNYKTTPPVLDSDGSFFLYSKLTVDKSRWQQGNVFSCSVMHEALHNHYTQESLSLSP
light: not shown

Kd [3]: 5600 nM
B3: IL6R-BP479/IL6R-L (antibody, human IgG1, kappa)
heavy: B2 heavy with E235D, G239D, V266I, V268L, S269A, H270E, P273G, K332A
light: not shown

Kd [5]: 13 nM | KD (IIaH)/KD (IIb) [6]: 230 | KD (IIaR)/KD (IIb) [7]: 16
B9: IL6R-BP483/IL6R-L (antibody, human IgG1, kappa)
heavy: B2 heavy with E235D, G239D, V268L, S269A, H270E, P273G, K332A
light: not shown

Kd [5]: 1300 nM
B12: IL6R-BP268/IL6R-L (antibody, human IgG1, kappa)
heavy: B2 heavy with E235D, G239D, H270E, P273G, Y298D, K332A
light: not shown

Kd [5]: 120 nM
B13: IL6R-BP435/IL6R-L (antibody, human IgG1, kappa)
heavy: B2 heavy with E235D, G239D, H270D, P273G, Y298D, K328A, K332R, I334T
light: not shown

Kd [9]: 0.003 µM
B16: IL6R-BP441/IL6R-L (antibody, human IgG1, kappa)
heavy: B2 heavy with E235D, G239D, V268L, H270E, P273G, K332R
light: not shown

Kd [3]: 51 nM
B20: IL6R-BP436/IL6R-L (antibody, human IgG1, kappa)
heavy: B2 heavy with E235D, G239D, S269A, H270E, P273G, Y298D, K332R, I334T
light: not shown

KD (IIaR)/KD (IIb) [7]: 38.6
B21: IL6R-BP494/IL6R-L (antibody, human IgG1, kappa)
heavy: B2 heavy with G239D, S269A, H270E, P273G, Y298D, K332R
light: not shown

KD (IIaR)/KD (IIb) [7]: 38.3
B22: IL6R-BP499/IL6R-L (antibody, human IgG1, kappa)
heavy: B2 heavy with E235D, G239D, V266I, S269A, H270E, P273G, Y298D, K332R, P398L
light: not shown

Kd [9]: 1.5 µM
B26: IL6R-BP440/IL6R-L (antibody, human IgG1, kappa)
heavy: B2 heavy with E235D, G239D, V266I, H270E, P273G, K332R
light: not shown

Kd [11]: 40 µM
B27: IL6R-BP480/IL6R-L (antibody, human IgG1, kappa)
heavy: B2 heavy with E235D, G239D, V268L, H270E, E271D, P273G, K332A
light: not shown

Kd [9]: 8.3 µM
B28: IL6R-BP481/IL6R-L (antibody, human IgG1, kappa)
heavy: B2 heavy with E235D, G239D, V266I, S269A, H270E, P273G, K332A
light: not shown

Kd [3]: 1.2 nM
B29: IL6R-BP431/IL6R-L (antibody, human IgG1, kappa)
heavy: B2 heavy with E235D, G239D, S269G, H270E, E271D, P273G, K332R
light: not shown

KD (IIb) of the parent polypeptide/KD (IIb) of the altered polypeptide [2]: 2.1 fold (parent IL6R-B3/IL6R-L)
B32: IL6R-BP912/IL6R-L (antibody, human IgG1, kappa)
heavy: B2 heavy with K332R
light: not shown

Kd [3]: 0.1 nM
B33: IL6R-BP425/IL6R-L (antibody, human IgG1, kappa)
heavy: B2 heavy with E235D, G239D, V268L, S269A, H270E, P273G, K332R
light: not shown

KD (IIaR)/KD (IIb) [7]: 42.3
B37: IL6R-BP489/IL6R-L (antibody, human IgG1, kappa)
heavy: B2 heavy with E235D, G239D, V266I, S269A, H270E, P273G, Y298D, K332R, P398M
light: not shown

Kd [5]: 11 nM | Kd [9]: 13 µM
B39: IL6R-BP493/IL6R-L (antibody, human IgG1, kappa)
heavy: B2 heavy with V266I, S269A, H270E, P273G, Y298D, K332A
light: not shown

Second part, the binder before the results:

B1: IL6R-BP087/IL6R-L (antibody, human IgG1, kappa)
heavy: B2 heavy with L236Y
light: not shown
Kd [1]: 3800 nM

B4: IL6R-BP078/IL6R-L (antibody, human IgG1, kappa)
heavy: B2 heavy with K332M
light: not shown
KD (IIb) of the parent polypeptide/KD (IIb) of the altered polypeptide [2]: 2.8 fold (parent IL6R-B3/IL6R-L)

B5: IL6R-BP121/IL6R-L (antibody, human IgG1, kappa)
heavy: B2 heavy with K328Q, K332A
light: not shown
KD (IIb) of the parent polypeptide/KD (IIb) of the altered polypeptide [2]: 2.8 fold (parent IL6R-B3/IL6R-L)

B6: IL6R-BP100/IL6R-L (antibody, human IgG1, kappa)
heavy: B2 heavy with S269A, K332A
light: not shown
KD (IIb) of the parent polypeptide/KD (IIb) of the altered polypeptide [2]: 2.9 fold (parent IL6R-B3/IL6R-L)

B7: IL6R-BP204/IL6R-L (antibody, human IgG1, kappa)
heavy: B2 heavy with E235D, P273G, K328A, K332R
light: not shown
Kd [4]: 2100 nM

B8: IL6R-BP143/IL6R-L (antibody, human IgG1, kappa)
heavy: B2 heavy with L236Y, K328A, K332A
light: not shown
Kd [1]: 18 nM

B10: IL6R-BP118/IL6R-L (antibody, human IgG1, kappa)
heavy: B2 heavy with K328S, K332A
light: not shown
KD (IIb) of the parent polypeptide/KD (IIb) of the altered polypeptide [2]: 2.7 fold (parent IL6R-B3/IL6R-L)

B11: IL6R-BP209/IL6R-L (antibody, human IgG1, kappa)
heavy: B2 heavy with G239D, H270D, P273G, K328A, K332R
light: not shown
Kd [4]: 1000 nM

B14: IL6R-BP136/IL6R-L (antibody, human IgG1, kappa)
heavy: B2 heavy with K328A, K332A
light: not shown
KD (IIb) of the parent polypeptide/KD (IIb) of the altered polypeptide [2]: 3.9 fold (parent IL6R-B3/IL6R-L)

B15: IL6R-BP186/IL6R-L (antibody, human IgG1, kappa)
heavy: B2 heavy with E235D, L236Y, G239D, P273G, Y298D, K328A
light: not shown
Kd [8]: 950 nM

B17: IL6R-BP112/IL6R-L (antibody, human IgG1, kappa)
heavy: B2 heavy with P273G, K332A
light: not shown
KD (IIb) of the parent polypeptide/KD (IIb) of the altered polypeptide [2]: 9.7 fold (parent IL6R-B3/IL6R-L)

B18: IL6R-BP103/IL6R-L (antibody, human IgG1, kappa)
heavy: B2 heavy with S269V, K332A
light: not shown
KD (IIb) of the parent polypeptide/KD (IIb) of the altered polypeptide [2]: 2.5 fold (parent IL6R-B3/IL6R-L)

B19: IL6R-BP142/IL6R-L (antibody, human IgG1, kappa)
heavy: B2 heavy with K328N, K332A
light: not shown
KD (IIb) of the parent polypeptide/KD (IIb) of the altered polypeptide [2]: 2.6 fold (parent IL6R-B3/IL6R-L)

B23: IL6R-BP184/IL6R-L (antibody, human IgG1, kappa)
heavy: B2 heavy with E235D, P273G
light: not shown
Kd [10]: 0.068 µM

B24: IL6R-BP116/IL6R-L (antibody, human IgG1, kappa)
heavy: B2 heavy with K328T, K332A
light: not shown
KD (IIb) of the parent polypeptide/KD (IIb) of the altered polypeptide [2]: 2.8 fold (parent IL6R-B3/IL6R-L)

B25: IL6R-BP106/IL6R-L (antibody, human IgG1, kappa)
heavy: B2 heavy with H270D, K332A
light: not shown
KD (IIb) of the parent polypeptide/KD (IIb) of the altered polypeptide [2]: 3.3 fold (parent IL6R-B3/IL6R-L)

B30: IL6R-BP183/IL6R-L (antibody, human IgG1, kappa)
heavy: B2 heavy with E235D, L236Y, P273G, K328A
light: not shown
Kd [8]: 2500 nM

B31: IL6R-BP213/IL6R-L (antibody, human IgG1, kappa)
heavy: B2 heavy with E235D, H270D, P273G, K332R
light: not shown
Kd [10]: 65 µM

B34: IL6R-BP126/IL6R-L (antibody, human IgG1, kappa)
heavy: B2 heavy with K328L, K332A
light: not shown
KD (IIb) of the parent polypeptide/KD (IIb) of the altered polypeptide [2]: 2.2 fold (parent IL6R-B3/IL6R-L)

B35: IL6R-BP265/IL6R-L (antibody, human IgG1, kappa)
heavy: B2 heavy with G239D, H270E, P273G, Y298D, K332R
light: not shown
Kd [5]: 830 nM

B36: IL6R-BP102/IL6R-L (antibody, human IgG1, kappa)
heavy: B2 heavy with S269Q, K332A
light: not shown
KD (IIb) of the parent polypeptide/KD (IIb) of the altered polypeptide [2]: 3.4 fold (parent IL6R-B3/IL6R-L)

B38: IL6R-BP117/IL6R-L (antibody, human IgG1, kappa)
heavy: B2 heavy with K328D, K332A
light: not shown
KD (IIb) of the parent polypeptide/KD (IIb) of the altered polypeptide [2]: 3.9 fold (parent IL6R-B3/IL6R-L)

B40: IL6R-BP110/IL6R-L (antibody, human IgG1, kappa)
heavy: B2 heavy with H270N, K332A
light: not shown
KD (IIb) of the parent polypeptide/KD (IIb) of the altered polypeptide [2]: 2.1 fold (parent IL6R-B3/IL6R-L)

B41: IL6R-BP150/IL6R-L (antibody, human IgG1, kappa)
heavy: B2 heavy with L236Y, G239D, K328A, K332R
light: not shown
Kd [1]: 300 nM
